# Laboratory results: the supplement of paper PMC9112550, “Optimization of the antimicrobial peptide Bac7 by deep mutational scanning” (BMC Biology, 2022)
# System: Escherichia coli TOP10
# Experiment: shrunken log2 fold change of peptide-encoding DNA abundance (4.5 h post-induction vs induction); higher = less antimicrobial activity (less host growth inhibition)
# Conditions: time post-induction: 4.5 h; library: site-saturation at positions 5, 18, 19, 20
# 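Also: peptides expressed intracellularly from a pBAD plasmid library in pooled LB shake-flask culture, induced with 0.3% L-arabinose, DNA abundance read by NGS, three biological replicates, DESeq2 with apeglm shrinkage.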
row,Sequence,shrunken log2 fold change
1,RRIRTRPPRLPRPRPRPCPQPRP,-0.312
2,RRIRYRPPRLPRPRPRPRPNPRP,-0.0554
3,RRIRDRPPRLPRPRPRPFHFPRP,-0.208
4,RRIRIRPPRLPRPRPRPPLSPRP,-0.128
5,RRIRARPPRLPRPRPRPGYMPRP,-0.21
6,RRIRIRPPRLPRPRPRPTLYPRP,-0.348
7,RRIRNRPPRLPRPRPRPHVNPRP,-0.237
8,RRIRERPPRLPRPRPRPVSNPRP,-1.12
9,RRIRYRPPRLPRPRPRPHPTPRP,-0.289
10,RRIRARPPRLPRPRPRPVKKPRP,0.147
11,RRIRLRPPRLPRPRPRPTLIPRP,-0.407
12,RRIRQRPPRLPRPRPRPTNEPRP,-0.395
13,RRIRIRPPRLPRPRPRPASKPRP,-0.116
14,RRIRYRPPRLPRPRPRPDQHPRP,-0.13
15,RRIRNRPPRLPRPRPRPAEKPRP,0.0519
16,RRIRIRPPRLPRPRPRPNSWPRP,-0.691
17,RRIRHRPPRLPRPRPRPARFPRP,0.358
18,RRIRSRPPRLPRPRPRPHTYPRP,-0.265
19,RRIRGRPPRLPRPRPRPTVGPRP,0.832
20,RRIRHRPPRLPRPRPRPHVKPRP,-0.00471
21,RRIRARPPRLPRPRPRPKWGPRP,0.418
22,RRIRDRPPRLPRPRPRPEAQPRP,1.66

row,Sequence,shrunken log2 fold change
1,RRIRHRPPRLPRPRPRPRGHPRP,-0.103
2,RRIRWRPPRLPRPRPRPHDFPRP,-0.313
3,RRIRVRPPRLPRPRPRPTFKPRP,-0.152
4,RRIRDRPPRLPRPRPRPIILPRP,0.0057
5,RRIRTRPPRLPRPRPRPDQFPRP,-0.00188
6,RRIRWRPPRLPRPRPRPHQQPRP,-0.0485
7,RRIRPRPPRLPRPRPRPICTPRP,0.0424
8,RRIRIRPPRLPRPRPRPAHSPRP,-0.0596
9,RRIRMRPPRLPRPRPRPEIYPRP,0.106
10,RRIRNRPPRLPRPRPRPWDCPRP,-0.118
11,RRIRSRPPRLPRPRPRPVRWPRP,0.893
12,RRIRYRPPRLPRPRPRPINPPRP,-0.269
13,RRIRGRPPRLPRPRPRPADSPRP,0.283
14,RRIRPRPPRLPRPRPRPPCIPRP,0.00615
15,RRIRKRPPRLPRPRPRPMEHPRP,-0.0568
16,RRIRNRPPRLPRPRPRPHQMPRP,-0.114
17,RRIRIRPPRLPRPRPRPMFMPRP,-0.383
18,RRIRPRPPRLPRPRPRPSDNPRP,-0.449
19,RRIRWRPPRLPRPRPRPFYGPRP,-0.0562
20,RRIRWRPPRLPRPRPRPLINPRP,-0.229
21,RRIRYRPPRLPRPRPRPTAWPRP,-0.011
22,RRIRKRPPRLPRPRPRPSGIPRP,0.149

row,Sequence,shrunken log2 fold change
1,RRIRSRPPRLPRPRPRPYHYPRP,-0.527
2,RRIRRRPPRLPRPRPRPSPCPRP,0.155
3,RRIRMRPPRLPRPRPRPCNAPRP,0.0226
4,RRIRPRPPRLPRPRPRPKDCPRP,0.107
5,RRIRCRPPRLPRPRPRPQTVPRP,-0.275
6,RRIRDRPPRLPRPRPRPGCHPRP,0.15
7,RRIRLRPPRLPRPRPRPQSTPRP,-0.0595
8,RRIRERPPRLPRPRPRPPMLPRP,1.29
9,RRIRDRPPRLPRPRPRPLSPPRP,-0.0511
10,RRIRGRPPRLPRPRPRPMSEPRP,0.286
11,RRIRLRPPRLPRPRPRPPTEPRP,0.296
12,RRIRVRPPRLPRPRPRPYKWPRP,-0.266
13,RRIRLRPPRLPRPRPRPYSTPRP,-1.09
14,RRIRNRPPRLPRPRPRPALLPRP,0.504
15,RRIRERPPRLPRPRPRPLSLPRP,-0.371
16,RRIRGRPPRLPRPRPRPLVIPRP,0.187
17,RRIRYRPPRLPRPRPRPTVIPRP,-0.146
18,RRIRDRPPRLPRPRPRPMMRPRP,0.763
19,RRIRTRPPRLPRPRPRPNIKPRP,-0.828
20,RRIRNRPPRLPRPRPRPILIPRP,-0.37
21,RRIRIRPPRLPRPRPRPVGAPRP,0.475
22,RRIRPRPPRLPRPRPRPEGLPRP,0.491

row,Sequence,shrunken log2 fold change
1,RRIRGRPPRLPRPRPRPLEIPRP,0.428
2,RRIRKRPPRLPRPRPRPPSYPRP,0.667
3,RRIRYRPPRLPRPRPRPVYYPRP,-0.68
4,RRIRLRPPRLPRPRPRPLMDPRP,-0.0257
5,RRIRPRPPRLPRPRPRPHWPPRP,0.0791
6,RRIRIRPPRLPRPRPRPILTPRP,-0.854
7,RRIRKRPPRLPRPRPRPLNDPRP,-0.0546
8,RRIRCRPPRLPRPRPRPYKQPRP,-0.211
9,RRIRDRPPRLPRPRPRPGRYPRP,-0.134
10,RRIRFRPPRLPRPRPRPVMPPRP,-0.12
11,RRIRARPPRLPRPRPRPCGEPRP,-0.00932
12,RRIRPRPPRLPRPRPRPGMRPRP,0.852
13,RRIRRRPPRLPRPRPRPYGCPRP,-0.00402
14,RRIRVRPPRLPRPRPRPMMGPRP,0.00748
15,RRIRWRPPRLPRPRPRPSRQPRP,0.399
16,RRIRVRPPRLPRPRPRPENKPRP,-0.134
17,RRIRARPPRLPRPRPRPASHPRP,2.2
18,RRIRSRPPRLPRPRPRPNLCPRP,-0.0929
19,RRIRIRPPRLPRPRPRPKFFPRP,-0.116
20,RRIRHRPPRLPRPRPRPWNRPRP,-0.297
21,RRIRVRPPRLPRPRPRPTKPPRP,0.172
22,RRIRGRPPRLPRPRPRPKNYPRP,0.175

row,Sequence,shrunken log2 fold change
1,RRIRERPPRLPRPRPRPEDPPRP,-0.134
2,RRIRDRPPRLPRPRPRPWLQPRP,0.133
3,RRIRCRPPRLPRPRPRPKCLPRP,0.036
4,RRIRTRPPRLPRPRPRPCTCPRP,-0.00101
5,RRIRCRPPRLPRPRPRPPGMPRP,0.326
6,RRIRKRPPRLPRPRPRPSFDPRP,0.301
7,RRIRLRPPRLPRPRPRPMAMPRP,0.0591
8,RRIRNRPPRLPRPRPRPVMQPRP,-0.187
9,RRIRHRPPRLPRPRPRPQCSPRP,-0.0894
10,RRIRHRPPRLPRPRPRPQNGPRP,-0.535
11,RRIRERPPRLPRPRPRPFNSPRP,-0.225
12,RRIRMRPPRLPRPRPRPIEPPRP,0.0361
13,RRIRTRPPRLPRPRPRPAHSPRP,0.0608
14,RRIRSRPPRLPRPRPRPRLWPRP,0.397
15,RRIRDRPPRLPRPRPRPVRRPRP,0.971
16,RRIRKRPPRLPRPRPRPLNRPRP,-0.0492
17,RRIRNRPPRLPRPRPRPHYIPRP,-0.842
18,RRIRRRPPRLPRPRPRPQAVPRP,0.331
19,RRIRTRPPRLPRPRPRPRTYPRP,-0.288
20,RRIRDRPPRLPRPRPRPGKDPRP,-0.0503
21,RRIRNRPPRLPRPRPRPSQYPRP,-0.268
